{"source": "paper PMC11098746", "about": "(2024)", "binders": {"B1": {"name": "ADP244 (protein)", "chain": "GIITGKLNYFGTFSLKIFAKTYFQYKINTYSNLYSYCGISQEYNKAKSTCESCPIGTFWNSEKLLCENCQKYIENTATLKNGAKLKTDCLCSPGYEYSDKSSKCEKCKPGYYKKSVGNFICIKGCPINEKSITYGAKSYAEMDCKCIEGYYRKEDKCVLCLSNYYCPGNELIKPCDKNKISKEGVIHKNDCICKENYIKDNKNNNCVYCASIAKILGKPIYCSLCDPIYFHEDIYKNIFLLPNNIHNYGLINNIYNYDEDLSLQGNIMKYAYFHKTTNIERNFAHYINIKNIYHTFNNNINNYDYLTNSKFAIEIDIPEPKKCIFCDSGYYIKKKKCISCTTKYCEGFNHNPKACPKNSVVNKMKASSIFDCSCKRGYGILNERRNAYSNTITCQICPQNFFKHIISDDSCFPCPLYTYTLNQGATSILQCLPKKGYFIYMFKSINIDYLRYKFDINTENRIYNYFENNNKIFDEDVYNFFLNKQYSKFFYNTENK", "modifications": "bait human Fc-tagged dimer; N-glycosylation sequons mutated in Plasmodium baits"}, "B2": {"name": "ADP239 (protein)", "chain": "NNLDKNKNFIQYKNFKKNKAYKYKNNNNNIIIINSHSHSNSHSNSHSHSNSHSNSHSHSNSHSNSHSHSNSHSHSHSNSHSNSHSHSSTQNSLYHDTNQANFLKPTSFFLYKHHVYFNQKYKKDPNILNKLKVPRNHIFHINKCDLNYYIQNYEFFFFFPDYYEYSHLYIRLDKLFYFQRCGCDTNIKKTKKRNQNIFNNMLGMKEKDTYLQNEICDIYWNYLKDDNTYDKYNFAIINYIKNIIKKMYRYLYIYKVFVLKQFYRIVYYNQGIRNFYYMLFSYIYNKGSIIYNYNQMYFKKHRKKQTIIRSKRFMNEHIKEEDVDYNIVKDEKDKSIQSTEQKSYLKNNAIQYFQCFLDKAMENKNAENELDKWIDPQSKSCYCSEEFAEPCTSEDLVDINNINQIMDNAFCEYNNNDNNNNDNNKNNNNNINNIINIYDNNILGDNVKNIFVALSEYKILQCNDKEKKDIIKKEQLYNYCKYGLNIWDNKNMYDYLNCLNVISYNKKDDKTCIRKCENIKKLCNIVAQFYSFEVCKKYYENNKHTEDIYINNFKYFSDHCKYIDPTNRGLVLCKHKNVECVYSQWSEWSTCSKTCIENEYDTNSARTRTRILLNKFEVPSKSCSFIINEKNNLMDINFCSYLPFCNKNNDMKKKDDERIMPFVISIKEIEKLNTLKYLNNDDNDLLNENYKNYESVHKNNECKVTDMYQYEYAISYNEKNKACSCPNNQAPCYFKDIYNSESWKKSLHILCKHNPHINVITADYIIIDCNMAISIKKKEIAVNTYLAMTFNCHSDIFQYIFCAKNIQSIRTN", "modifications": "bait human Fc-tagged dimer; N-glycosylation sequons mutated in Plasmodium baits"}, "B3": {"name": "ADP243 (protein)", "chain": "SDSYSTGGNEKEKIFMDNYKYMWTYIYFLQKRIMMKKLSHPLYMSKKFILLHNPKDIEEFRIPLKDTLWSYVDRNSIKGFININLDSIFDIDLKEYYVHDKENMANSEKSEDLECIDAYVQKTNEIYYNMADTKDEAYIFICKKCKHIYKDIKECREKSMQLMIQNMKITVPQIRLKYDKKNRNNEEIIINIPVTYVLSNLLSSLKKTVTYNTDDLNNACNVLIKMLHLDLLKILYNLQYHNGIFNGITEKYLIEFRNIFVKRQKTNTEDNNDMIWEECFVLKKSIDKIMNINSFLLTKSRNRYMDYLQNRRKRYRDILFMITYNVADMNLNTYIKSIYNYIHISTKIIEDIQYIYNQEVYATFFVRTELIETYLLRNPKQLKNTCSIYIMITISWFFNQINIGMYNKNKNVYDLFKEKFSKSNVKQIINSIYTNNVENKANILQICNDAMTNTIELIKKVIKNYYKQNNVLSNYNINFAGLIKFIDIQILRMKFIQSTLEKQPLIEYDTLNDDHLNNDAIIKRENMVCMMKYISNKINTYISLLKKSDLQTIMLQNYDKYNIYLDTYFTHNENVFFCSSPGQYLIIKIFFYSFFNILNIYG", "modifications": "bait human Fc-tagged dimer; N-glycosylation sequons mutated in Plasmodium baits"}, "B4": {"name": "ADP195 (protein)", "chain": "FRKYDKNKNKILISHSINNNNNAIKNNNNNNNAIKNNNNNNNAIKNNNNNNNAFSATSFSSEKNKNKAYTNVLKKKNIYIREESNKATNIKEDEEKNKKINNNDKETNYAFLSLKFFPFILTSLLHTGINQIPRNTEIELYEFEKSPMIRHMLVAEERKN", "modifications": "bait human Fc-tagged dimer; N-glycosylation sequons mutated in Plasmodium baits"}}, "experiment_in_all_cases": "AVEXIS screen signal:noise (double-corrected)", "key": {"ADP378": {"molecular_target": "T1, ADP378", "T1 chain": "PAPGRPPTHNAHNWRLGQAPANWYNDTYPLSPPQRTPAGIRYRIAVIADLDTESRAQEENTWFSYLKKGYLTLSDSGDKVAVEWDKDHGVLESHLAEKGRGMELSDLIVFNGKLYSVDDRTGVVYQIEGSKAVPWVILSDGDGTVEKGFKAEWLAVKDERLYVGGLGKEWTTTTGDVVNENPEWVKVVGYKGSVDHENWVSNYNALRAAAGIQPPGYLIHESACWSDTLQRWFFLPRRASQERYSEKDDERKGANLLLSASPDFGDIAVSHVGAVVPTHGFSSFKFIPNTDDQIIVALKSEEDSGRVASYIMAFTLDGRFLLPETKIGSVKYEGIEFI"}, "ADP262": {"molecular_target": "T2, ADP262", "T2 chain": "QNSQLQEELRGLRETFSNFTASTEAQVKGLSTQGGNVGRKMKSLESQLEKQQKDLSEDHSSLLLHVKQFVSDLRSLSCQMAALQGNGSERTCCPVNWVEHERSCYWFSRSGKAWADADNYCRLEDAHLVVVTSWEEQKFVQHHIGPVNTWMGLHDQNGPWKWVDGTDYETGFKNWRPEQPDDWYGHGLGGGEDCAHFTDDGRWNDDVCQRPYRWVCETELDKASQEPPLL"}, "ADP154": {"molecular_target": "T3, ADP154", "T3 chain": "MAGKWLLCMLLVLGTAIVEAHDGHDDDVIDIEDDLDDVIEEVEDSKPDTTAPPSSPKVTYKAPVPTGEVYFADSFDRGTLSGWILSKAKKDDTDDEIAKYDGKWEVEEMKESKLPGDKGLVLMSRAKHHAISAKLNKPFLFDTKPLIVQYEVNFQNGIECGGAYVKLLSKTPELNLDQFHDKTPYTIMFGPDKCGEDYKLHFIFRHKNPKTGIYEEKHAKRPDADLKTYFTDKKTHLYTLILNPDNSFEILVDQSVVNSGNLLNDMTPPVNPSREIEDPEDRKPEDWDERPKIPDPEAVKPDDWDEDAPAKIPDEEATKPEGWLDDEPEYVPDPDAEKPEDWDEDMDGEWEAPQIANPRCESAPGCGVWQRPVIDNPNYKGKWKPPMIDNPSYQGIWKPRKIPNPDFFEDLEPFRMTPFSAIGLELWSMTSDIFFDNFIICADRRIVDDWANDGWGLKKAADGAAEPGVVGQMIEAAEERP"}, "ADP155": {"molecular_target": "T4, ADP155", "T4 chain": "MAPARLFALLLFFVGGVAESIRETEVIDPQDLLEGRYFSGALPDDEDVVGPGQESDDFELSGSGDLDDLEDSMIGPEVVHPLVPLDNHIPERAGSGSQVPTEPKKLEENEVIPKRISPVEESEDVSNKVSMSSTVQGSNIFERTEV"}, "ADP318": {"molecular_target": "T5, ADP318", "T5 chain": "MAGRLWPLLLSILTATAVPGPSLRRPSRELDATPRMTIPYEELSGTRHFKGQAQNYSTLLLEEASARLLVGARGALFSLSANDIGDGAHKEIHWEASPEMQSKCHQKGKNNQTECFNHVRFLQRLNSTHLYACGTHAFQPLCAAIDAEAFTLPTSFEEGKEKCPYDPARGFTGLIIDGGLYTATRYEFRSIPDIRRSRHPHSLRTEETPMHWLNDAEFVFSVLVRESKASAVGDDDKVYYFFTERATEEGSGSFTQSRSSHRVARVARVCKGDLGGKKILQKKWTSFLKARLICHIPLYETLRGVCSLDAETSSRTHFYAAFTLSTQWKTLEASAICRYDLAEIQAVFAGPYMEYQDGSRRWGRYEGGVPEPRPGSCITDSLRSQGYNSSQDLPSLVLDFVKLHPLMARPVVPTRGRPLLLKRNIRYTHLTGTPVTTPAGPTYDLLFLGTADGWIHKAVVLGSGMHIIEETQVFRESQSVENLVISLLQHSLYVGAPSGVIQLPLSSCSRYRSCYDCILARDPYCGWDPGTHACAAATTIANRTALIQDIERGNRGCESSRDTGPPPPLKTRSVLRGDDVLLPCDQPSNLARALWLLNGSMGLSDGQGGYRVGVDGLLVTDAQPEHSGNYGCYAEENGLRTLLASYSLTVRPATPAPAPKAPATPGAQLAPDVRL"}, "ADP385": {"molecular_target": "T6, ADP385", "T6 chain": "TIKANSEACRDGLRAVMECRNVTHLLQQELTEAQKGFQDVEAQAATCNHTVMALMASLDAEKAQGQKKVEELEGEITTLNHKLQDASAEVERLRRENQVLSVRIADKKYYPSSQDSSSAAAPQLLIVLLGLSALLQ"}}}
{"binder": "B1", "values": [{"measurement": "binding score", "setting": "ADP378", "result": 6.32}]}
{"binder": "B2", "values": [{"measurement": "binding score", "setting": "ADP262", "result": 6.08}]}
{"binder": "B3", "values": [{"measurement": "binding score", "setting": "ADP154", "result": 8.73}, {"measurement": "binding score", "setting": "ADP155", "result": 8.67}]}
{"binder": "B4", "values": [{"measurement": "binding score", "setting": "ADP318", "result": 5.72}, {"measurement": "binding score", "setting": "ADP385", "result": 18.7}]}
